Test results reported in US20220089647A1 (FUJIFILM, published 2022).
Starred links: 1 amine or outer side, 2 acyl side, 3 side chain; linkers in the order of their positions; H or OH if unused. Positions of bridges follow the written chain, without caps; N, C: chain ends. Non-standard residues stand in square brackets, D forms with d. Primed or numbered codes have the meaning given here. No end group written: not given here. Dab(acetyl)″ = 2-amino-4-(acetylamino)butanoic acid, acetyl CH3 carbon bonded to the S of Hcy (S-CH2-C(=O)-NH-), O=C(C[*:3])NCC[C@H](N[*:1])C(=O)[*:2]; Dab(acetyl) = 2-amino-4-acetylamino-butanoic acid residue (N-γ-acetyl-diaminobutyric acid), CC(=O)NCC[C@H](N[*:1])C(=O)[*:2]; Orn(acetyl)″ = N-delta-acetyl-ornithine, acetyl CH3 carbon bonded to the S of Hcy, O=C(C[*:3])NCCC[C@H](N[*:1])C(=O)[*:2]; Lys(acetyl) = N-epsilon-acetyl-lysine, acetyl CH3 carbon bonded to the S of Hcy, O=C(C[*:3])NCCCC[C@H](N[*:1])C(=O)[*:2]; Dab(acetyl)(3) = 2-amino-4-(acetylamino)butanoic acid (Dab with N-γ-acetyl), CC(=O)NCC[C@H](N[*:1])C(=O)[*:2]; Dap(acetyl) = 2-amino-3-acetylamino-propanoic acid residue, CC(=O)NC[C@H](N[*:1])C(=O)[*:2]; hCys = N[C@@H](CCS)C(=O)O

B1: Cyclic peptide 112 (peptide)
peptide: KKKKKKA[hCys]VPRGDTFA[Dab(acetyl)″]A
modifications: thioether 8-17
B2: Cyclic peptide 93 (peptide)
peptide: KKKA[hCys]IPRGDSFA[Dab(acetyl)]G
modifications: thioether 5-14
B3: Cyclic peptide 107 (peptide)
peptide: KKKA[hCys]VPRGDTFA[Dab(acetyl)″]G
modifications: thioether 5-14
B4: Cyclic peptide 106 (peptide)
peptide: KKKG[hCys]VPRGDTFA[Dab(acetyl)″]A
modifications: thioether 5-14
B5: Cyclic peptide 97 (peptide)
peptide: KKKA[hCys]VPRGDSFA[Dab(acetyl)]G
modifications: thioether 5-14
B6: Cyclic peptide 99 (peptide)
peptide: KKKG[hCys]VPRGDSFA[Dab(acetyl)]G
modifications: thioether 5-14
B7: Cyclic peptide 122 (peptide)
peptide: KKKAXVPRGDTFAXA
modifications: not fully specified; KKKA(Dab(acetyl))VPRGDTFA-(Hcy)-A; thioether bond Dab(acetyl)-Hcy
B8: Cyclic peptide 98 (peptide)
peptide: KKKG[hCys]VPRGDSFA[Dab(acetyl)]A
modifications: thioether 5-14
B9: Cyclic peptide 96 (peptide)
peptide: KKKA[hCys]VPRGDSFA[Dab(acetyl)]A
modifications: thioether 5-14
B10: Cyclic peptide 95 (peptide)
peptide: KKKG[hCys]IPRGDSFA[Dab(acetyl)]G
modifications: thioether 5-14
B11: Cyclic peptide 108 (peptide)
peptide: KKKA[hCys]VPRGDTFA[Dab(acetyl)″]A
modifications: thioether 5-14
B12: Cyclic peptide 105 (peptide)
peptide: KKKG[hCys]VPRGDTFA[Dab(acetyl)″]G
modifications: thioether 5-14
B13: Cyclic peptide 136 (peptide)
peptide: KKKAXVPRGDTFAXA
modifications: not fully specified; KKKA(Dab(acetyl))VPRGDTFA-(Pen)-A; thioether bond Dab(acetyl)-Pen
B14: Cyclic peptide 94 (peptide)
peptide: KKKG[hCys]IPRGDSFA[Dab(acetyl)]A
modifications: thioether 5-14
B15: Cyclic peptide 100 (peptide)
peptide: A[hCys]IPRGDSFA[Dab(acetyl)″]AKKK
modifications: thioether 2-11
B16: Cyclic peptide 109 (peptide)
peptide: A[hCys]VPRGDTFA[Dab(acetyl)″]AKKK
modifications: thioether 2-11
B17: Cyclic peptide 128 (peptide)
peptide: KKKGXIPRGDTFRXA
modifications: not fully specified; KKKG-(Pen)-IPRGDTFR(Dap(acetyl))A; thioether bond Pen-Dap(acetyl)
B18: Cyclic peptide 60 (peptide)
peptide: KKK[hCys]IPRGDTF[Dab(acetyl)″]A
modifications: thioether 4-12
B19: Cyclic peptide 119 (peptide)
peptide: KKKGXIPRGDTFRXA
modifications: not fully specified; KKKG(Orn(acetyl))IPRGDTFR-(Hcy)-A; thioether bond Orn(acetyl)-Hcy
B20: Cyclic peptide 118 (peptide)
peptide: KKKG[Dab(acetyl)″]IPRGDTFR[hCys]A
modifications: thioether 5-14
B21: Cyclic peptide 126 (peptide)
peptide: AXIPRGDSFAXA
modifications: not fully specified; A-(Hcy)-IPRGDSFA(Dab(acetyl))A; thioether bond Hcy-Dab(acetyl)
notes: no lysine
B22: Cyclic peptide 127 (peptide)
peptide: AXIPRGDSFAXG
modifications: not fully specified; A-(Hcy)-IPRGDSFA(Dab(acetyl))G; thioether bond Hcy-Dab(acetyl)
notes: no lysine
B23: Cyclic peptide 114 (peptide)
peptide: KKKG[hCys]IPRGDTFR[Dap(acetyl)]A
modifications: thioether 5-14
B24: Cyclic peptide 110 (peptide)
peptide: KKKKA[hCys]VPRGDTFA[Dab(acetyl)(3)]A
modifications: thioether 6-15
B25: Cyclic peptide 116 (peptide)
peptide: KKKG[hCys]IPRGDTFR[Lys(acetyl)]A
modifications: thioether 5-14
B26: Cyclic peptide 117 (peptide)
peptide: KKKG[Dap(acetyl)]IPRGDTFR[hCys]A
modifications: thioether 5-14
B27: Cyclic peptide 111 (peptide)
peptide: KKKKKA[hCys]VPRGDTFA[Dab(acetyl)″]A
modifications: thioether 7-16
B28: Cyclic peptide 104 (peptide)
peptide: KKK[hCys]VPRGDTFA[Dab(acetyl)″]
modifications: thioether 4-13
B29: Cyclic peptide 101 (peptide)
peptide: KKK[hCys]IPRGDSFA[Dab(acetyl)″]
modifications: thioether 4-13
B30: Cyclic peptide 102 (peptide)
peptide: KKK[hCys]VPRGDSFA[Dab(acetyl)″]
modifications: thioether 4-13
B31: Cyclic peptide 11 (peptide)
peptide: KKK[hCys]IPRGDNFR[Dab(acetyl)(3)]
modifications: thioether 4-13
B32: Cyclic peptide 61 (peptide)
peptide: KKK[hCys]IPRGDTFR[Dab(acetyl)″]
modifications: thioether 4-13
B33: Cyclic peptide 62 (peptide)
peptide: KKK[hCys]IPRGDTFA[Dab(acetyl)″]
modifications: thioether 4-13
B34: Cyclic peptide 13 (peptide)
peptide: KKKXIPRGDNFX
modifications: not fully specified; KKK-(Hcy)-IPRGDNF(Dab(acetyl)); thioether bond Hcy-Dab(acetyl)
B35: Cyclic peptide 14 (peptide)
peptide: KKK[hCys]VPRGDNF[Dab(acetyl)]
modifications: thioether 4-12
B36: Cyclic peptide 64 (peptide)
peptide: KKK[hCys]VPRGDTF[Dab(acetyl)″]
modifications: thioether 4-12
B37: Cyclic peptide 63 (peptide)
peptide: KKK[hCys]IPRGDTF[Dab(acetyl)″]
modifications: thioether 4-12
B38: Cyclic peptide 115 (peptide)
peptide: KKKG[hCys]IPRGDTFR[Orn(acetyl)″]A
modifications: thioether 5-14
B39: Cyclic peptide 103 (peptide)
peptide: [hCys]VPRGDTFA[Dab(acetyl)″]KKK
modifications: thioether 1-10
B40: Cyclic peptide 125 (peptide)
peptide: AXVPRGDTFAXA
modifications: not fully specified; A-(Hcy)-VPRGDTFA(Dab(acetyl))A; thioether bond Hcy-Dab(acetyl)
notes: no lysine

What follows are binders tested against T1, human integrin αvβ5 (human, UniProt P06756 31-992; P18084 24-719, limits assumed) (assay: SPR, Biacore 3000, peptide immobilised; A = KD 50 nM or less).
T1 construct: Heterodimer flowed as analyte at 30, 100, 300 and 1,000 nM in HEPES buffer with 5 mM MgCl2
T1 sequence (P06756 31-992 limits assumed, chain 1 of 2): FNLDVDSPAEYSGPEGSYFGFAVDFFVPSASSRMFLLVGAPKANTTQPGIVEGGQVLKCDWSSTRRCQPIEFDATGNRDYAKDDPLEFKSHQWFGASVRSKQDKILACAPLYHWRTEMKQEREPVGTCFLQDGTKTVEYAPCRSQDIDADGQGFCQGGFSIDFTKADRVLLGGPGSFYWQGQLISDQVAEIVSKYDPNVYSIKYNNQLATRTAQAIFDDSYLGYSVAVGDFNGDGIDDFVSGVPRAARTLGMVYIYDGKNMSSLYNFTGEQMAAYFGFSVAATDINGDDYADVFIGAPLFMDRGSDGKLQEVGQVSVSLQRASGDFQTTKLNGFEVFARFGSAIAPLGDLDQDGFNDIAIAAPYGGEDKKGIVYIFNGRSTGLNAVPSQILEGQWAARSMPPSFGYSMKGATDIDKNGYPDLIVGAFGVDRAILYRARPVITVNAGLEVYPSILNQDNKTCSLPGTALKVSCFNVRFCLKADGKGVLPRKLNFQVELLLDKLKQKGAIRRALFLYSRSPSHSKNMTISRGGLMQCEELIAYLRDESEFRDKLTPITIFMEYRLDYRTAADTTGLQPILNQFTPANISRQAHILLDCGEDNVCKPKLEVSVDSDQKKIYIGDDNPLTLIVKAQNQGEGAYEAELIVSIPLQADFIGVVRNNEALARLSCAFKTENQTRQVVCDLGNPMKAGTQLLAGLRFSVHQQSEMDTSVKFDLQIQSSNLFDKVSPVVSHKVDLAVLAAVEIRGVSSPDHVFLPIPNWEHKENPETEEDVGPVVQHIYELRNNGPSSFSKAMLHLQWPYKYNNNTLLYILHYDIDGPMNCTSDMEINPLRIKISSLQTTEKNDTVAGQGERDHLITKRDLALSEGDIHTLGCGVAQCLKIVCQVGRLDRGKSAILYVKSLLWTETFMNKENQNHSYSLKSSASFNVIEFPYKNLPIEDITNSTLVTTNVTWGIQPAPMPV
T1 sequence (P18084 24-719 limits assumed, chain 2 of 2): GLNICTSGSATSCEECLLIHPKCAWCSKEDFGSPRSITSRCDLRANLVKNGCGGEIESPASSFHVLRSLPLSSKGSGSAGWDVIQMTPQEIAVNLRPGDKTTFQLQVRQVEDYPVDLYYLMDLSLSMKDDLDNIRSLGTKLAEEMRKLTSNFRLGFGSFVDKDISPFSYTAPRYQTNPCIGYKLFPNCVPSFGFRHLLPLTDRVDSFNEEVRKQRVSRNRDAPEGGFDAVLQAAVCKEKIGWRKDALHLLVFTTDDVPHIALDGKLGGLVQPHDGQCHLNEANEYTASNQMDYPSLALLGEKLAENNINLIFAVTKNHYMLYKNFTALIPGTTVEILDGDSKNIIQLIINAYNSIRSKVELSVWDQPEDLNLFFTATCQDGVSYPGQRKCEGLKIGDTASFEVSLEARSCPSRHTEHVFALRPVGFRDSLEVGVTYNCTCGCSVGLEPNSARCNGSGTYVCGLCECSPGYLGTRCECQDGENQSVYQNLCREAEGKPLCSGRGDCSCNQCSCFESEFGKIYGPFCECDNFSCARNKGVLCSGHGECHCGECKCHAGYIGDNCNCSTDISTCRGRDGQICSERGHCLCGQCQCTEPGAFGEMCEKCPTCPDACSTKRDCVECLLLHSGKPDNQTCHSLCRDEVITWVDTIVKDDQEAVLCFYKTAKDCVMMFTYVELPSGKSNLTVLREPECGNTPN
Method: However, only for the cyclic peptides 125, 126, and 127, in which the number of lysine residues having an amino group as the immobilizing functional group was zero, the amount of the sample solution to be supplied to the sensor chip was set to 500 μL instead of 20 μL. Further, 70 μL of the mixed aqueous solution of 0.2 M EDC and 0.04 M NHS was added to another flow channel of the same sensor chip without immobilizing the sample, and then blocking treatment and washing treatment were carried out. Hereinafter, the obtained immobilization-treated sensor chip is referred to as an “immobilization-treated sensor chip A”.
After adding human integrin αvβ5 for 10 minutes at 25° C., which was diluted to 30 nM using a HEPES buffer solution to which magnesium chloride was added to 5 mM, in each flow channel of the immobilization-treated sensor chip A prepared in (1) above, the same HEPES buffer solution (containing 5 mM magnesium chloride) was allowed to flow as a running buffer for 30 minutes, and measurement was carried out with Biacore 3000. Then, a regeneration treatment of removing human integrin αvβ5 was carried out by allowing a 0.5 M EDTA aqueous solution to flow through each flow channel for 10 minutes. Further, the above-described measurement process consisting of adding integrin for 10 minutes, allowing a running buffer to flow for 30 minutes, carrying out measurement with Biacore 3000, and carrying out regeneration treatment with 0.5 M EDTA aqueous solution was carried out in the same manner for 100 nM human integrin αvβ5, 300 nM human integrin αvβ5, and 1,000 nM human integrin αvβ5. Dissociation constant between the cyclic peptide and human integrin αvβ5 was calculated from the difference between the value measured by Biacore 3000 in the flow channel immobilized with the cyclic peptide and the value measured by Biacore 3000 in the flow channel unimmobilized with the cyclic peptide, in a case where each concentration of human integrin αvβ5 was allowed to flow, and the integrin binding property was evaluated according to the following evaluation standards. It is preferable that the evaluation result satisfies the evaluation standard A, B, or C.
With B1 the dissociation constant was ≤ 50 nM. In the case of B2, the dissociation constant is reported as ≤ 50 nM. In the case of B3, the dissociation constant is reported as ≤ 50 nM. In the case of B4, the dissociation constant is reported as ≤ 50 nM. B5 was tested, and the dissociation constant was ≤ 50 nM. B6 was tested, and the dissociation constant was ≤ 50 nM. With B7 the dissociation constant was ≤ 50 nM. With B8 the dissociation constant was ≤ 50 nM. With B9 the dissociation constant was ≤ 50 nM. With B10 the dissociation constant was ≤ 50 nM. B11 was tested, and the dissociation constant was ≤ 50 nM. For B12, the dissociation constant was ≤ 50 nM. For B13, the dissociation constant was ≤ 50 nM. In the case of B14, the dissociation constant is reported as ≤ 50 nM. For B15, the dissociation constant was ≤ 50 nM. For B16, the dissociation constant was ≤ 50 nM. With B17 the dissociation constant was ≤ 50 nM. In the case of B18, the “dissociation constant (KD)” value is reported as ≤ 50 nM. In the case of B19, the dissociation constant is reported as ≤ 50 nM. With B20 the dissociation constant was ≤ 50 nM. For B21, the dissociation constant was ≤ 50 nM. B22 was tested, and the dissociation constant was ≤ 50 nM. For B23, the dissociation constant was ≤ 50 nM. In the case of B24, the dissociation constant is reported as ≤ 50 nM. With B25 the dissociation constant was ≤ 50 nM. In the case of B26, the dissociation constant is reported as ≤ 50 nM. In the case of B27, the dissociation constant is reported as ≤ 50 nM. B28 was tested, and the dissociation constant was ≤ 50 nM. With B29 the dissociation constant was ≤ 50 nM. In the case of B30, the dissociation constant is reported as ≤ 50 nM. In the case of B31, the “dissociation constant (KD)” value is reported as ≤ 50 nM. In the case of B32, the dissociation constant is reported as ≤ 50 nM. In the case of B33, the dissociation constant is reported as ≤ 50 nM. For B34, the “dissociation constant (KD)” value was ≤ 50 nM. In the case of B35, the “dissociation constant (KD)” value is reported as ≤ 50 nM. With B36 the dissociation constant was ≤ 50 nM. For B37, the dissociation constant was ≤ 50 nM. In the case of B38, the dissociation constant is reported as ≤ 50 nM. With B39 the dissociation constant was ≤ 50 nM. B40 was tested, and the dissociation constant was ≤ 50 nM.
